Measured values from the RNAGym collection of RNA variant scans (doi:10.1073/pnas.2313332121).
Variants at the floor of the assay were thinned out.

B1: TPR 5TU (parent)
chain: GGAUCUUCUCGAUCUAACAAAAAAGACAAAUCUGCCACAAAGCUUGAGAGCAUCUUCGGAUGCAGAGGCGGCAGCCUUCGGUGGCGCGAUAGCGCCAACGUUCUCAACUAUGACACGCAAAACGCGUGCUCCGUUGAAUGGAGUUUAUCAUG

Variants of: B1
Assay: polymerase ribozyme fitness, log enrichment relative to wild type (log ratio); higher = more active; in vitro selection for triplet polymerase activity
In short: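 Frozen incubation at −7 °C formed the core of a single, triplicate in vitro selection round applied to PCR-built, transcribed mutant libraries of each subunit of a heterodimeric triplet polymerase ribozyme. Extended constructs were gel-excised, captured with streptavidin beads and amplified by RT-PCR, and input and output libraries were Illumina-sequenced with a filter of ≥10 input reads and ≥1 read per output. Fitness is the logarithm of genotype enrichment relative to wild-type enrichment, with inverse-variance-weighted replicate averaging, and the logarithm is base 2.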

Row | Variant | polymerase ribozyme fitness (log ratio)
1 | GGAUCUUCUCGAUCUAACAAAAAAGACAAAUCUGCCACAAAGCUUGAGAGCAUCUUCGGAUGCAGAGGCGGCAGCCUUCGGCGGCGCGAUAGCGCCAACGUUCUCAACUAUGACACGCAAAACGCGUGCUCCGUCGAAUGGAGUUCAUCAUG [U82C U135C U146C] | -2.14
2 | GGAUCUUCUCGAUCUAACAAAAAAGACAAAUCUGCCACAAAGCUUGAGAGCAUCUUCGGAUGCAGAGGCGGCAGCCUUCGGCGGCACGAUAGCGCCAACGUUCUCAACUAUGACACGCAAAACGCGUGCUCCGUUGAAUGGAGUUUAUCAUG [U82C G86A] | -2.06
3 | GGAUCUUCUCGAUCUAACAAAAAAGACAAAUCUGCCACAAAGCUUGAGAGCAUCUUCGGAUGCAGAGGCGGCAGCCUUCGGCAGCGCGAUAGCGCCAACGUUUUCAACUAUGACACGCAAAACGCGUGCUCCGUUGAAUGGAGUUUAUCAUG [U82C G83A C103U] | -0.585
4 | GGAUCUUCUCGAUCUAACAAAAAAGACAAAUCUGCCACAAAGCUUGAGAGCAUCUUCGGAUGCAGAGGCGGCAGCCUUCGGAGGCGCGAUAGCGCCAACGUUCUCAACUAUGACACGCAAAACGAGUGCUCCGUUGAAUGGAGUUUAUCAUG [U82A C125A] | -0.504
5 | GGAUCUUCUCGAUCUAACAAAAAAGACAAAUCUGCCACAAAGCUUGAGAGCAUCUUCGGAUGCAGAGGCGGCAGCCUUCGGAGGCGCGAUAGCGCCAACGUUCUCAACUAUGACACGCAAAACGGGUGCUCCGUUGAAUGGAGUUUAUCAUG [U82A C125G] | -0.33
6 | GGAUCUUCUCGAUCUAACAAAAAAGACAAAUCUGCCACAAAGCUUGAGAGCAUCUUCGGAUGCAGAGGCGGCAGCCUUCGGGGGUGCGAUAGCGCCAACGUUCUCAUCUAUGACACGCAAAACGCGUGCUCCGUUGAAUGGAGUUUAUCAUG [U82G C85U A107U] | -3.59
7 | GGAUCUUCUCGAUCUAACAAAAAAGACAAAUCUGCCACAAAGCUUGAGAGCAUCUUCGGAUGCAGAGGCGGCAGCCUUCGGAGGCGCGAUAGCGCCAACGUUCUCAACUAUGACACGCAAAACGCAUGCUCCGUUGAAUGGAGUUUAUCAUG [U82A G126A] | 1.28
8 | GGAUCUUCUCGAUCUAACAAAAAAGACAAAUCUGCCACAAAGCUUGAGAGCAUCUUCGGAUGCAGAGGCGGCAGCCUUCGGGGGCGCGUUUGCGCCAUCCUUCUCAACUAUGACACGCAAAACGCGUGCUCCGUUGAAUGGAGUUUAUCAUG [U82G A89U A91U A98U G100C] | ≤ -4.2
9 | GGAUCUUCUCGAUCUAACAAAAAAGACAAAUCUGCCACAAAGCUUGAGAGCAUCUUCGGAUGCAGAGGCGGCAGCCUUCGGGGGCGCGAUAGCGCCAACGUUCUCAACUGUGACACGCAAAACGGGUGCUCCGUUGUAUGGAGUUUAUCAUG [U82G A110G C125G A137U] | ≤ -4.2
10 | GGAUCUUCUCGAUCUAACAAAAAAGACAAAUCUGCCACAAAGCUUGAGAGCAUCUUCGGAUGCAGAGGCGGCAGCCUUCGGGGGAGCGAUAGCGUCAACGUUCUCAACUAUGACACGCAAAACGCGUGCUCCGUUGAAUGGAGUUAAUCUUG [U82G C85A C95U U146A A150U] | -1.37
11 | GGAUCUUCUCGAUCUAACAAAAAAGACAAAUCUGCCACAAAGCUUGAGAGCAUCUUCGGAUGCAGAGGCGGCAGCCUUCGGGGGCGCGAUAGCGCCAACGUUCUCAACUAUGACACGCAAGACGCGUGCUCCGUUGAAUGGAGUUUAUCAUG [U82G A121G] | -0.49
12 | GGAUCUUCUCGAUCUAACAAAAAAGACAAAUCUGCCACAAAGCUUGAGAGCAUCUUCGGAUGCAGAGGCGGCAGCCUUCGGCGACGCGAUAGCGCCAUCGUUCUCAACUAUGACUCGCAAAACGCGUGCUCCGUUGAAUGAAGUUUAUCAUG [U82C G84A A98U A115U G141A] | -2.58
13 | GGAUCUUCUCGAUCUAACAAAAAAGACAAAUCUGCCACAAAGCUUGAGAGCAUCUUCGGAUGCAGAGGCGGCAGCCUUCGGGGGCGCGAUAGCGCCAACGUUCUCAACUAUGGCACGCAAAACGUGUGCUCCGUUGAAUGGAGUUUAUCAUG [U82G A113G C125U] | -3.28
14 | GGAUCUUCUCGAUCUAACAAAAAAGACAAAUCUGCCACAAAGCUUGAGAGCAUCUUCGGAUGCAGAGGCGGCAGCCUUCGGCGGCGCGAUAGCGUCAACGUUCUCAACUAUGACACGCAAAACGCGUGCUGCGUUGAAUGGCGUUUAUCAUG [U82C C95U C131G A142C] | ≤ -4.2
15 | GGAUCUUCUCGAUCUAACAAAAAAGACAAAUCUGCCACAAAGCUUGAGAGCAUCUUCGGAUGCAGAGGCGGCAGCCUUCGGCGGCGCGAUAGGGCCAACGUUCUCAACUAUGACAGGUAAAACGCGUGCUCCGUUGAAUAGAGUUUAUCCUG [U82C C93G C116G C118U G140A A150C] | ≤ -4.2
16 | GGAUCUUCUCGAUCUAACAAAAAAGACAAAUCUGCCACAAAGCUUGAGAGCAUCUUCGGAUGCAGAGGCGGCAGCCUUCGGAGGCGCGAUAGCGCCAACGUUCUCAACUAUGACACGCAAAACGCGCGCUCCGUUGAAUGGAGUUUAUCAUU [U82A U127C G152U] | -3.97
17 | GGAUCUUCUCGAUCUAACAAAAAAGACAAAUCUGCCACAAAGCUUGAGAGCAUCUUCGGAUGCAGAGGCGGCAGCCUUCGGGGGCGCGAUAGCGCCAACGUUCUCAACUAUGACACGCAAAACGCGUGCUCCGUUGCAUGGAGUUUAUCAUG [U82G A137C] | -2.98
18 | GGAUCUUCUCGAUCUAACAAAAAAGACAAAUCUGCCACAAAGCUUGAGAGCAUCUUCGGAUGCAGAGGCGGCAGCCUUCGGAGGCGCGAUACCGCCAACGUUCUCAACUAUGACACGCAAAACGCGUGCUCCGUUGAAUGGAGUUUAUCAUG [U82A G92C] | 0.508
19 | GGAUCUUCUCGAUCUAACAAAAAAGACAAAUCUGCCACAAAGCUUGAGAGCAUCUUCGGAUGCAGAGGCGGCAGCCUUCGGAGGCGCGAUAUCGCCAACGUUCUCAACUAUGACACGCAAAACGCGUGCUCCGUUGAAUGGAGUUUAUCAUG [U82A G92U] | -0.55

Row | Variant | polymerase ribozyme fitness (log ratio)
20 | GGAUCUUCUCGAUCUAACAAAAAAGACAAAUCUGCCACAAAGCUUGAGAGCAUCUUCGGAUGCAGAGGCGGCAGCCUUCGGAGGCGCGAUAGCGCCAACGUGCUCAACUAUGACACGCAAAACGCGUGCUCCGUUGAAUGGAGUUUAUCAUG [U82A U102G] | -2.54
21 | GGAUCUUCUCGAUCUAACAAAAAAGACAAAUCUGCCACAAAGCUUGAGAGCAUCUUCGGAUGCAGAGGCGGCAGCCUUCGGAGGCGCGAUAGCGCCAACGUUCUCAACUAUGACACGCAAAACGCGUGAUCCGUUGAAUGGAGUUUAUCAUG [U82A C129A] | -2.19
22 | GGAUCUUCUCGAUCUAACAAAAAAGACAAAUCUGCCACAAAGCUUGAGAGCAUCUUCGGAUGCAGAGGCGGCAGCCUUCGGAGGCGCGAUAGCGCCAACGUGCUCAACUAUGACACGCAAAACGCGUGCUCCGUUGAAUGGAGGUUAUCAUG [U82A U102G U144G] | -1.48
23 | GGAUCUUCUCGAUCUAACAAAAAAGACAAAUCUGCCACAAAGCUUGAGAGCAUCUUCGGAUGCAGAGGCGGCAGCCUUCGGCGGCGCGAUAGCGCCAACGUUCUCAACUAUGACUCGCAAAACGCGUGCUCCGUUCAAUGGAGUUUAUCAUG [U82C A115U G136C] | -3.84
24 | GGAUCUUCUCGAUCUAACAAAAAAGACAAAUCUGCCACAAAGCUUGAGAGCAUCUUCGGAUGCAGAGGCGGCAGCCUUCGGCGGCGCGAUAGCUCCAGCGUUCUCACCUAUGACACGCAAAACGCGUGCUCCGUUGAAUGGAGUUUAUCAUG [U82C G94U A98G A107C] | ≤ -4.2
25 | GGAUCUUCUCGAUCUAACAAAAAAGACAAAUCUGCCACAAAGCUUGAGAGCAUCUUCGGAUGCAGAGGCGGCAGCCUUCGGCGGCGCGAUAGCGCCAACGUUCUCAACUAUGAUACGCAAAACGCGUGCUCCGUUGAAUGGAGUUUAUCAUG [U82C C114U] | -1.99
26 | GGAUCUUCUCGAUCUAACAAAAAAGACAAAUCUGCCACAAAGCUUGAGAGCAUCUUCGGAUGCAGAGGCGGCAGCCUUCGGAGGCGCGAUAGCGCCAACGUUCUCAACUAUGACACGCAAAACACGUGCUCCGUUGAAUGGAGUUUAUCAUG [U82A G124A] | 0.114
27 | GGAUCUUCUCGAUCUAACAAAAAAGACAAAUCUGCCACAAAGCUUGAGAGCAUCUUCGGAUGCAGAGGCGGCAGCCUUCGGCGGAGCGAUAGCGCCAACGUUCUCAACUAUGACACGCAAAACGCGUGCUCCGUUGAAUGGAGUCUAUCAUG [U82C C85A U145C] | 0.554
28 | GGAUCUUCUCGAUCUAACAAAAAAGACAAAUCUGCCACAAAGCUUGAGAGCAUCUUCGGAUGCAGAGGCGGCAGCCUUCGGAGGCGCGAUAGCGCCAACGUUCUCAACUAUGACACGCAAAACGCGUGCUCCGUUGAAUGGAGUUAAUCAUG [U82A U146A] | -0.606
29 | GGAUCUUCUCGAUCUAACAAAAAAGACAAAUCUGCCACAAAGCUUGAGAGCAUCUUCGGAUGCAGAGGCGGCAGCCUUCGGCGGCGCGAUAGCACCAACGUUCUCAACUAUGACACGCAAAACGCGUGCUCCGUUGAAUGGAGUUUAUCAUG [U82C G94A] | -1.35
30 | GGAUCUUCUCGAUCUAACAAAAAAGACAAAUCUGCCACAAAGCUUGAGAGCAUCUUCGGAUGCAGAGGCGGCAGCCUUCGGGGGCGCGAUAGCGCCAACGUUCUCAACUAUGACACGCAAAACGCGUGCUCCGUUGAAUGGAGUUUAUCAUG [U82G] | 0.17
31 | GGAUCUUCUCGAUCUAACAAAAAAGACAAAUCUGCCACAAAGCUUGAGAGCAUCUUCGGAUGCAGAGGCGGCAGCCUUCGGCGGCGCGAUAGCGCCAACGUUCUCAACUAUGACACGCAAAACGCGUGCUCCGUUGAAUGGAGUUUAUCAUG [U82C] | -0.0678
32 | GGAUCUUCUCGAUCUAACAAAAAAGACAAAUCUGCCACAAAGCUUGAGAGCAUCUUCGGAUGCAGAGGCGGCAGCCUUCGGAGGCACGAUAGCGCCAUCGUUCUCAACUAUGACACGCAAAACGCGUGCUCCGAUGAAUGGAGUUUAUCAUG [U82A G86A A98U U134A] | -3.68
33 | GGAUCUUCUCGAUCUAACAAAAAAGACAAAUCUGCCACAAAGCUUGAGAGCAUCUUCGGAUGCAGAGGCGGCAGCCUUCGGCGGCGCCAUAGCGCCAACGUUCUUAACUAUGACACGCAAAACGCGUGCUCCGUUGAAUGAAGUUUAUUAUG [U82C G88C C105U G141A C149U] | ≤ -4.2
34 | GGAUCUUCUCGAUCUAACAAAAAAGACAAAUCUGCCACAAAGCUUGAGAGCAUCUUCGGAUGCAGAGGCGGCAGCCUUCGGCGGCGCGAUAGCGGCAACGUUCUCAACUAUGACACGCAAAACGCGUGCUCCGUUGAAUGGAGUUUAUCAUG [U82C C95G] | -2.63
35 | GGAUCUUCUCGAUCUAACAAAAAAGACAAAUCUGCCACAAAGCUUGAGAGCAUCUUCGGAUGCAGAGGCGGCAGCCUUCGGCGGCGCGAUAGCCCCAACGUUCUCAAAUGUGGCACGCAAAACGCGUGCUCCGUUGAAUUGAGUUUAUCAUG [U82C G94C C108A A110G A113G G140U] | ≤ -4.2
36 | GGAUCUUCUCGAUCUAACAAAAAAGACAAAUCUGCCACAAAGCUUGAGAGCAUCUUCGGAUGCAGAGGCGGCAGCCUUCGGCGACGCGAUAGCGCCAACGUUCUCAACUAUGACACUCAAAACGCGUGCUCCGUUGAAUGGAGUUUAUCAUG [U82C G84A G117U] | -0.688
37 | GGAUCUUCUCGAUCUAACAAAAAAGACAAAUCUGCCACAAAGCUUGAGAGCAUCUUCGGAUGCAGAGGCGGCAGCCUUCGGGGGCGCGAUAGCGCCAGCGUUCUCAACUAUGACACACAAAUCGCGUGCUCCGUUGAAUGGAGUUUAUCAUG [U82G A98G G117A A122U] | 0.376
38 | GGAUCUUCUCGAUCUAACAAAAAAGACAAAUCUGCCACAAAGCUUGAGAGCAUCUUCGGAUGCAGAGGCGGCAGCCUUCGGCGGUGCGAUAGCGCCAACGUUCUCAACUAUGAAACGCAAAACGCGUGCUCCGUUGAAUGGAGUUUAUCAUG [U82C C85U C114A] | -3.22
